Test [1] addresses T1, human Notch4, full length, on transfected cells (human, UniProt Q99466 24-2003).
T1 construct: also called hNotch4
In words: FACS on HEK-293 cells transiently transfected with hNotch4 and GFP. The protocol:
The ability of the 59R1 IgG2 antibody to cross-react with other Notch receptors was determined by FACS assay using HEK-293 cells transiently transfected with the human Notch1, Notch2. Notch3 or Notch4 expression plasmid and green fluorescent protein (GFP) as a transfection control. GFP positive cells indicated expression of the transgene. The 59R1 IgG2 was added to the cells at 2 μg/ml and detected by PE-conjugated goat anti-human Fc gamma specific (Jackson Immunochemicals). All Notch constructs were full length.

Test [2] has as its target T2, recombinant mouse Notch2 (EGF10-15) (mouse, UniProt O35516 375-605).
T2 construct: domain: EGF10-15; also called mNotch2; m-Notch2
T2 sequence (looked up): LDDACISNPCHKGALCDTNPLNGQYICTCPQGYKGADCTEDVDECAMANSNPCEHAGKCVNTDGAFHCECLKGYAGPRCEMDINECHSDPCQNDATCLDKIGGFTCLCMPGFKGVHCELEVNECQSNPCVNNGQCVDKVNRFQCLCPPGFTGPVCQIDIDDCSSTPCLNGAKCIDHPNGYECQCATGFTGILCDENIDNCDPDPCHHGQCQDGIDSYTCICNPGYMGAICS
In words: Biacore 2000 SPR; Notch protein amine-coupled to CM5 chip, antibody 1-100 nM injected. The protocol: The affinities for human and mouse Notch1, Notch2, Notch3, and Notch4 were determined using a Biacore 2000 instrument. Briefly, recombinant human and mouse Notch proteins (EGF10-15 for Notch1, 2, & 4; EGF9-14 for Notch3) were immobilized on a CM5 chip using standard amine based chemistry (NHS/EDC). For hNotch2. EGF1-12 was also tested for binding. Different antibody concentrations (1-100 nM) were injected over the protein surfaces and kinetic data were collected over time. The data was fit using the simultaneous global fit equation to yield dissociation constants (KD, nM) for each Notch (Table 3).

The target in test [3] is T3, hNotch2 H385N AL 388-89 SN mutant, full length, on transfected cells (human, UniProt Q04721 26-2471).
T3 construct: also called mutant hNotch2 in which certain EGF10 residues have been mutated to hNotch1 residues
In words: FACS on transfected cells. The protocol: A comparison analysis of the EGF10 regions of human Notch1, Notch2, and Notch4 and the EGF9 region of human Notch3 (the equivalent of EGF10 in the other Notch receptors) was performed to determine likely binding sites for 59R1 (FIG. 14A). As a result of the analysis, several point mutants were created within full-length Notch2, converting residues within EGF10 to the corresponding amino acids in human Notch 1. Also, conversely, point mutations were made in hNotch1 EGF10 converting residues to the corresponding hN2 residues. Mutants in full-length Notch sequences were generated by QuikChange® mutagenesis (Stratagene) and verified by sequencing. Binding to the mutants was determined by FACS analysis (FIGS. 14B and 14C). 59R1 was detected by PE-conjugated goat anti-human Fc gamma specific antibody (Jackson Immunochemicals, #109-116-170). […] The corresponding residues in hNotch3 are histidine 361, alanine 364, and isoleucine 365.

T1 sequence (Q99466 24-2003 limits assumed): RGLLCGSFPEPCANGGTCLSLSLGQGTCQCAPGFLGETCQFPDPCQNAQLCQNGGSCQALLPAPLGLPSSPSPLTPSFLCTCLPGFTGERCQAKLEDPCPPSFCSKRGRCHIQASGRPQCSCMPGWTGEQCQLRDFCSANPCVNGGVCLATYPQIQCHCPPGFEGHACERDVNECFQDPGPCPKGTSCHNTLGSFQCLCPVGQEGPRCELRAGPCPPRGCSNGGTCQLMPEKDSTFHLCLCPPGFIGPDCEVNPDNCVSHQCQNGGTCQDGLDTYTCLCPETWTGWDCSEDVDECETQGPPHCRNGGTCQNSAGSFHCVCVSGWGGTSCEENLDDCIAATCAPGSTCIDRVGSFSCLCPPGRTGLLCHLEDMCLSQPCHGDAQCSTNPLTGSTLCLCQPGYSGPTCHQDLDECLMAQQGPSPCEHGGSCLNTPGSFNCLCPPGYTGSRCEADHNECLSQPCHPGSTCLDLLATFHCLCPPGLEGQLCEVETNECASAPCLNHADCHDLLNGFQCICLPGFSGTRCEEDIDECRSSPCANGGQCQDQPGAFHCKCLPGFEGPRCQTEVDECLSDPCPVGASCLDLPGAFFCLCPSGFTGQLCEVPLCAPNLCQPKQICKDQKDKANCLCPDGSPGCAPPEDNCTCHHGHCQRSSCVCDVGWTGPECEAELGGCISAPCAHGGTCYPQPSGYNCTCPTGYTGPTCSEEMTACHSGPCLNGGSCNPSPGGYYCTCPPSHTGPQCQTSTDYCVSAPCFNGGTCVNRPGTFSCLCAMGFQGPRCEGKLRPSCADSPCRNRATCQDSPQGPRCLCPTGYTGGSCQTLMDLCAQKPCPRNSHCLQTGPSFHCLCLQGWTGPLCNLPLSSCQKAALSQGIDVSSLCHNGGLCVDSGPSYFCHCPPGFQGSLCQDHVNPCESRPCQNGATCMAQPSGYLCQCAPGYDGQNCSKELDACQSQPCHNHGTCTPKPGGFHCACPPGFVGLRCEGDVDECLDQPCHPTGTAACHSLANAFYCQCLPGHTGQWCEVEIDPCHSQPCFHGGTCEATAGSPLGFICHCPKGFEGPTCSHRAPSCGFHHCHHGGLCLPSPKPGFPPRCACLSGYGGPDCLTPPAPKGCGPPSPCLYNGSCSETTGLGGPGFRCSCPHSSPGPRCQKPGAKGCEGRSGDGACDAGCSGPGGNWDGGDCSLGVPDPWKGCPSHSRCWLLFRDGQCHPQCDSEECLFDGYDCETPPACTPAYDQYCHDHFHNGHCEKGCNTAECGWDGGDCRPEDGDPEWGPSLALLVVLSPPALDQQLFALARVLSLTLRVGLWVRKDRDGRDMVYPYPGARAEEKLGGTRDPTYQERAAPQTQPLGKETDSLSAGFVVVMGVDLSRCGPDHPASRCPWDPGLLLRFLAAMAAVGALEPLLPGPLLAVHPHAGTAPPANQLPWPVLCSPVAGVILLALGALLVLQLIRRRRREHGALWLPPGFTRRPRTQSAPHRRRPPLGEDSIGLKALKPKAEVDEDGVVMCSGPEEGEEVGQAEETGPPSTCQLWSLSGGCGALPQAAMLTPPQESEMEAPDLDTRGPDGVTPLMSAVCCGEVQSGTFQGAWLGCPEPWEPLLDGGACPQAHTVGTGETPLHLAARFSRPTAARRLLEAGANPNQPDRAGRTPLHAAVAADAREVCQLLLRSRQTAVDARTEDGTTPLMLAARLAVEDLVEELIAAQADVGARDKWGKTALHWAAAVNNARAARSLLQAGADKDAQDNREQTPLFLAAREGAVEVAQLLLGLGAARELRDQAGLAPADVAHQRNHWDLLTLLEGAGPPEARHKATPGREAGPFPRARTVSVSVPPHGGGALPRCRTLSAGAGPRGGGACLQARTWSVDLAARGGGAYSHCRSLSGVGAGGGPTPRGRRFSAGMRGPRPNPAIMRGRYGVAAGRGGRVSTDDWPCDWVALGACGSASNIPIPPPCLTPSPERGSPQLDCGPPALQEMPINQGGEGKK
T3 sequence (Q04721 26-2471 H385N/A388S/L389N limits assumed): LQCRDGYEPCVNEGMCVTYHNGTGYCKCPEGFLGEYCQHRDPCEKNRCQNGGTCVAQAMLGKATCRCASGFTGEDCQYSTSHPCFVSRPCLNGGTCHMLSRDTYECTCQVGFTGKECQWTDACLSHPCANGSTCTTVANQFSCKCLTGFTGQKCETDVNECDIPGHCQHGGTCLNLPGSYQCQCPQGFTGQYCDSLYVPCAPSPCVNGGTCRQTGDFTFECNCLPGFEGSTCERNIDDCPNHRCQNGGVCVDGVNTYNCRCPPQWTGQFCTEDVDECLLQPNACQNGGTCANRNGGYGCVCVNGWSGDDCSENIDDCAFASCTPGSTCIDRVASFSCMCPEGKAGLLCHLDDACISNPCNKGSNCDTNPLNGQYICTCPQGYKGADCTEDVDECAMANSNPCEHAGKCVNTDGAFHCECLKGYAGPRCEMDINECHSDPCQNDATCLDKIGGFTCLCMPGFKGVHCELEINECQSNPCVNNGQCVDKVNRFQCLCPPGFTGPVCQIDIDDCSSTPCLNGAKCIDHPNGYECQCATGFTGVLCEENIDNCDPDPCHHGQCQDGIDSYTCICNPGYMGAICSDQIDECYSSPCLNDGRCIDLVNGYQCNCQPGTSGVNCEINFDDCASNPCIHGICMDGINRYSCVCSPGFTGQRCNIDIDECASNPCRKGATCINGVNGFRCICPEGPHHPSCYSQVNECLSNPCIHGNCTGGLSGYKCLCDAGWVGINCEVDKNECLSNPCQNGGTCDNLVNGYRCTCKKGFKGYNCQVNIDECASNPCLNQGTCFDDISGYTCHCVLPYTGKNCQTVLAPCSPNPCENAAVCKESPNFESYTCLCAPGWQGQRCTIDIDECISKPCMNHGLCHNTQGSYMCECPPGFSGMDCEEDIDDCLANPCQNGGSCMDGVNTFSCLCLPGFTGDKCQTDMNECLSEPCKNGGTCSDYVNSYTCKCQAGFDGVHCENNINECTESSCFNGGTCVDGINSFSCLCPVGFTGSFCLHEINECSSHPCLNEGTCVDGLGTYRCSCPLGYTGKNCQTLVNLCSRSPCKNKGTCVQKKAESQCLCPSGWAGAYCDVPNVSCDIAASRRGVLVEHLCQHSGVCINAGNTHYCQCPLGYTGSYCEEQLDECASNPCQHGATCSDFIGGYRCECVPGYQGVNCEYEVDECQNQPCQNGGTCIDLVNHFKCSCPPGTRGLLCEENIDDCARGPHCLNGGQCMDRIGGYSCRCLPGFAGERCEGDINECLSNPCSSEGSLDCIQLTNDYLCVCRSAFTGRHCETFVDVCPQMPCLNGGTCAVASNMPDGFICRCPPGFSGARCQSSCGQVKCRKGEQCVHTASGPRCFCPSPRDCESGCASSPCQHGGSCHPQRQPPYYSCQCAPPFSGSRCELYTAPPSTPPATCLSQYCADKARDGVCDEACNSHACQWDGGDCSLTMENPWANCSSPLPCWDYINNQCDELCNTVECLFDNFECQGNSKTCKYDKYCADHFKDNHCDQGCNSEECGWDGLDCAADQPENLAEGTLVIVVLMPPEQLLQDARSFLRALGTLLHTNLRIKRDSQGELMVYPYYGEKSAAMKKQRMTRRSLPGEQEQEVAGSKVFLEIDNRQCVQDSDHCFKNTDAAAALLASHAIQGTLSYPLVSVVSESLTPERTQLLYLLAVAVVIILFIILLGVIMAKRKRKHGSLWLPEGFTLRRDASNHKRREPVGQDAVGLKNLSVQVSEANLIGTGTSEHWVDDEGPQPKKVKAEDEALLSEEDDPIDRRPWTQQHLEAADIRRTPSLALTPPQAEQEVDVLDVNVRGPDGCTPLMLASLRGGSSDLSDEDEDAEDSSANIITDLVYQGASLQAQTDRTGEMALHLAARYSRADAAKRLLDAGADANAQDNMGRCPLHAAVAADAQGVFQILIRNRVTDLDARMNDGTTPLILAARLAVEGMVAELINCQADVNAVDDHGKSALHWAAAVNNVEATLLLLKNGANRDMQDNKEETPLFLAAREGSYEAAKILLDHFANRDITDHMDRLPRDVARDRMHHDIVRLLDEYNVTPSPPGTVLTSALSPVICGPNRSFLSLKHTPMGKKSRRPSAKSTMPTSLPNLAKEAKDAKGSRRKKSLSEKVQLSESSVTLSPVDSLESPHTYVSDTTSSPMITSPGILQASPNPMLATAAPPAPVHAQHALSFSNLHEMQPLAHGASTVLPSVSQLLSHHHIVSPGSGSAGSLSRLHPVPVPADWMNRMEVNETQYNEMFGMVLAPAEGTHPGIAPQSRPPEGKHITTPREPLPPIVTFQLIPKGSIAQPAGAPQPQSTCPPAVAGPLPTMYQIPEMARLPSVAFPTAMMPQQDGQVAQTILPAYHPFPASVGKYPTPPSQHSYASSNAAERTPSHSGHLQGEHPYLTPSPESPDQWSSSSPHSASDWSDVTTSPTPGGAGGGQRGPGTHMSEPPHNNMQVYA

B1: 59R1 IgG2 antibody (antibody, V domains shown)
VH: QVQLVESGGGLVQPGGSLRLSCAASGFTFSSSGMSWVRQAPGKGLEWVSVIASSGSNTYYADSVKGRFTISRDNSKNTLYLQMNSLRAEDTAVYYCARGIFFAIWGQGTLVTVSS
VL: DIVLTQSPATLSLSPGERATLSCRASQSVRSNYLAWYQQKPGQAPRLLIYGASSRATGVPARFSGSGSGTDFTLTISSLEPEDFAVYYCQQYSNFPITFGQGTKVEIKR
notes: Human IgG2/kappa made in CHO cells; also called anti-Notch2/3 antibody 59R1
As for B1, the figures for the binding result in test [1] and in test [3] were “no binding (tested: 2 ug/ml)” and “no binding”, respectively. In addition, the Kd in test [2] was 0.35 nM.
